Laboratory results published in patent US20180016325.

Tests used:
[1] = molecular target: MP-LAFG-PABC-(piperazinoBOR) LA-104 as antibody conjugate AAC-193
[2] = molecular target: thioFAB 4497 MP-LAFGA-QSY7
[3] = molecular target: thioFAB S4497-MC-GGAFAGGG-(pipBOR)
[4] = molecular target: thioFAB 4497 MP-LAFAA-QSY7

| Protein | Percent cleavage pH 5 [1] [%] | Percent cleavage pH 7.2 [1] [%] | percent cleavage at pH 7.2 [1] | Percent cleavage pH 7.2 [2] [%] | cleavage of the linker (LC-MS) [3] | Percent cleavage pH 7.2 [4] [%] |
| --- | --- | --- | --- | --- | --- | --- |
| staphopain A (protein) YNEQYVNKLENFKIRETQGNNGWCAGYTMSALLNATYNTNKYHAEAVMRFLHPNLQGQQFQFTGLTPREMIYFEQTQGRSPQLLNRMTTYNEVDNLTKNNKGIAILGSRVESRNGMHAGHAMAVVGNAKLNNGQEVIIIWNPWDNGFMTQDAKNNVIPVSNGDHYQWYSSIYGY | 100 | 46 | Staphopain A showed 100% cleavage at pH5 and 64% cleavage at pH 7.2 |  |  |  |
| staphopain B (protein) DQVQYENTLKNFKIREQQFDNSWCAGFSMAALLNATKNTDTYNAHDIMRTLYPEVSEQDLPNCATFPNQMIEYGKSQGRDIHYQEGVPSYNQVDQLTKDNVGIMILAQSVSQNPNDPHLGHALAVVGNAKINDQEKLIYWNPWDTELSIQDADSSLLHLSFNRDYNWYGSMIGY | 100 | 100 |  | 100 | Staphopain B was found to cleave the linker at the same site as the active protease purified from Wood46 supernatant | 100 |
